Test results taken from paper PMC12637021, “Talin–tensin3 interactions regulate fibrillar adhesion formation and tensin3 phase separation” (The Journal of Cell Biology, 2025).

How the values were obtained:
NIH3T3 cells [1] = test: FRAP of GFP-TNS3 in adhesions; type: cell-based, mouse; settings: vs TNS3-WT; 37°C; n = 27 (WT) and 26 (L702E) adhesions
Description: Transfected NIH3T3 cells were incubated in prewarmed DMEM medium at 37°C for 1 h to equilibrate prior to imaging. FRAP experiments were performed using a spinning disk confocal microscope as described above. Slidebook software (version 6.0.3, 3I) was used to set up the experiment. Regions of interest (ROIs) were manually adjusted to the shape of adhesion. A 488-nm laser was used at 100% power to bleach one to three adhesion ROIs per cell. Three prebleach images were acquired, followed by one image every 10 s for 3 min after bleach. Time-lapse images were analyzed using FIJI/ImageJ software ([Schindelin et al., 2012]) to obtain the intensity values of three control unbleached control ROIs and bleached ROIs over time. Values were background-subtracted, and measurements were corrected with the control values of the unbleached ROIs to compensate for any overall fluorescence loss. Intensity values were then normalized to the first postbleach value; normalized data were fitted to a one-phase association model Y=Y0+(Plateau-Y0)*(1-exp(-K*x)) using GraphPad Prism 10 software. Coefficients of the curve fit were extracted and transformed to generate the mobile fraction and halftime of recovery.

TNS3KO cells = test: FN fibrils, rescue of TNS3KO cells; type: cell-based, human; settings: vs TNS3-WT; IST9 antibody; 40 × 40 μm squares; n = 56 (WT) and 54 (L702E) cells
Description: (§1) Cells were fixed in 4% paraformaldehyde (PFA, Sigma-Aldrich), which had been prewarmed to 37°C for 15 min before being washed three times with PBS. For immunofluorescence staining, cells were permeabilized with 0.5% Triton X-100 (Sigma-Aldrich) at room temperature for 5 min before being washed three times with PBS. Blebbistatin (Tocris Bioscience) was diluted in dimethyl sulfoxide (Sigma-Aldrich) and used at a final concentration of 50 μM. […]
To analyze the FN fibrils, the images were background-subtracted (rolling ball), before 40 × 40 μm square boxes were applied for particle analysis to count FN fibrils larger than 0.2 μm^2. The FN coverage was calculated by dividing the area covered by FN fibrils by the total area of the box (1,600 μm^2).

U2OS TNS3KO cells = test: α5 integrin-positive FBs, rescue of TNS3KO cells; type: cell-based, human; settings: vs mCh-TNS3-WT; FN-coated, overnight; SNAKA51 antibody; n = 37 (WT) and 47 (L702E) cells
Description: as §1
(§2) Analysis of cell adhesion sites, FN fibrils, and LLPS condensates was performed using FIJI/ImageJ (version 1.54f) software ([Schindelin et al., 2012]). […] Prior to adhesion quantification, the images were background-subtracted using a rolling ball algorithm, followed by thresholding of adhesion sites and Analyse Particles functions in FIJI/ImageJ to quantify adhesions. Adhesion sites with sizes between 0.4 and 10 μm^2 were counted, except for adhesions in blebbistatin-treated cells, which were counted with sizes between 0.2 and 4 μm^2. […]

NIH3T3 cells [2] = test: adhesion stability under blebbistatin, NIH3T3 cells; type: cell-based, mouse; settings: blebbistatin 50 µM, 60 min; n = 64 (WT), 49 (L702E), 62 (ΔPTB), 71 (Cterm) cells
Description: as §1, §2

NIH3T3 cells [3] = test: client protein recruitment to tensin3 condensates; type: cell-based, mouse; settings: TNS3-L702E condensates
From the text: Since the observed tensin3 condensates were derived from adhesion sites in a talin-regulated mechanosensitive manner, we wondered whether these condensates contain other adhesion components or signaling molecules. To address this question, we examined a selection of cell–matrix adhesion proteins that have been reported by others to be present in LLPS condensates. These proteins include LIMD1 ([Wang et al., 2021]), kindlin2 ([Hsu et al., 2023]), talin ([Hsu et al., 2023]; [Litschel et al., 2024]), KANK ([Guo et al., 2023]), tensin1 ([Lee et al., 2023]), vinculin ([Litschel et al., 2024]), and GIT1 ([Zhu et al., 2020]). We added the actin regulatory RhoGAP DLC1 to this selection, as it is known to bind tensin ([Liao et al., 2006]; [Shih et al., 2015]), and the RNA regulatory protein GIGYF1, which we had previously identified alongside many of the aforementioned proteins in tensin BioID datasets ([Atherton et al., 2022]). We also added stress granule components G3BP1 ([Tourrière et al., […]]) and TDP-43 ([Colombrita et al., 2009]). These proteins were either co-expressed as fluorescently tagged proteins (Fig. S4 I) or, where antibodies were available, probed endogenously in cells that formed GFP-TNS3 condensates (Fig. 8 A).
Cells were fixed in 4% paraformaldehyde (PFA, Sigma-Aldrich), which had been prewarmed to 37°C for 15 min before being washed three times with PBS. For immunofluorescence staining, cells were permeabilized with 0.5% Triton X-100 (Sigma-Aldrich) at room temperature for 5 min before being washed three times with PBS. Blebbistatin (Tocris Bioscience) was diluted in dimethyl sulfoxide (Sigma-Aldrich) and used at a final concentration of 50 μM. The following primary antibodies were diluted in 1% bovine serum albumin (BSA, Sigma-Aldrich): mouse anti-α5 integrin (SNAKA51, 1:100, NBP2-50146; Novus Biologicals), rat anti-β1 integrin (9EG7, 1:200; 553715; BD Biosciences), mouse anti-FN (IST-9, 1:100, ab6328; Abcam), rabbit anti-tensin3 (1:200, HPA055338; Atlas), mouse anti-EEA1 (1:500, 68065-1-IG; Proteintech), mouse anti-LAMP1 (1:200, ab320851; Abcam), mouse anti-paxillin (349, 1:400, mab3060; Sigma-Aldrich), rabbit anti-talin1 (1:200, 82856-4-RR; Proteintech), mouse anti-vinculin (hVin1, 1:500, V9264; Sigma-Aldrich), rabbit anti-KANK2 (1:100, HPA015643; Sigma-Aldrich), rabbit anti-kindlin2 (1:100, 11453-1-AP; Proteintech), rabbit anti-GIT1 (1:200, 26247-1-AP; Proteintech), mouse anti-phosphotyrosine (4G10, 1:200, 05-321X; Sigma-Aldrich), rabbit anti-G3BP1 (1:600, 13057-2-AP; Proteintech), rabbit anti-TDP43 (1:400, 10782-2-AP; Proteintech), and rabbit anti-GIGYF1 (1:400, ab121784; Abcam). […]

B1: TNS3-L702E: tensin3 carrying the L702E point mutation that blocks the interaction with talin (protein, UniProt Q68CZ2 1-1445, looked up, variant L702E)
Tensin-3: MEEGHGLDLTYITERIIAVSFPAGCSEESYLHNLQEVTRMLKSKHGDNYLVLNLSEKRYDLTKLNPKIMDVGWPELHAPPLDKMCTICKAQESWLNSNLQHVVVIHCRGGKGRIGVVISSYMHFTNVSASADQALDRFAMKKFYDDKVSALMQPSQKRYVQFLSGLLSGSVKMNASPLFLHFVILHGTPNFDTGGVCRPFLKLYQAMQPVYTSGIYNVGPENPSRICIVIEPAQLLKGDVMVKCYHKKYRSATRDVIFRLQFHTGAVQGYGLVFGKEDLDNASKDDRFPDYGKVELVFSATPEKIQGSEHLYNDHGVIVDYNTTDPLIRWDSYENLSADGEVLHTQGPVDGSLYAKVRKKSSSDPGIPGGPQAIPATNSPDHSDHTLSVSSDSGHSTASARTDKTEERLAPGTRRGLSAQEKAELDQLLSGFGLEDPGSSLKEMTDARSKYSGTRHVVPAQVHVNGDAALKDRETDILDDEMPHHDLHSVDSLGTLSSSEGPQSAHLGPFTCHKSSQNSLLSDGFGSNVGEDPQGTLVPDLGLGMDGPYERERTFGSREPKQPQPLLRKPSVSAQMQAYGQSSYSTQTWVRQQQMVVAHQYSFAPDGEARLVSRCPADNPGLVQAQPRVPLTPTRGTSSRVAVQRGVGSGPHPPDTQQPSPSKAFKPRFPGDQVVNGAGPELSTGPSPGSPTLDIDQSIEQENRLILELDPTFEPIPTHMNALGSQANGSVSPDSVGGGLRASSRLPDTGEGPSRATGRQGSSAEQPLGGRLRKLSLGQYDNDAGGQLPFSKCAWGKAGVDYAPNLPPFPSPADVKETMTPGYPQDLDIIDGRILSSKESMCSTPAFPVSPETPYVKTALRHPPFSPPEPPLSSPASQHKGGREPRSCPETLTHAVGMSESPIGPKSTMLRADASSTPSFQQAFASSCTISSNGPGQRRESSSSAERQWVESSPKPMVSLLGSGRPTGSPLSAEFSGTRKDSPVLSCFPPSELQAPFHSHELSLAEPPDSLAPPSSQAFLGFGTAPVGSGLPPEEDLGALLANSHGASPTPSIPLTATGAADNGFLSHNFLTVAPGHSSHHSPGLQGQGVTLPGQPPLPEKKRASEGDRSLGSVSPSSSGFSSPHSGSTISIPFPNVLPDFSKASEAASPLPDSPGDKLVIVKFVQDTSKFWYKADISREQAIAMLKDKEPGSFIVRDSHSFRGAYGLAMKVATPPPSVLQLNKKAGDLANELVRHFLIECTPKGVRLKGCSNEPYFGSLTALVCQHSITPLALPCKLLIPERDPLEEIAESSPQTAANSAAELLKQGAACNVWYLNSVEMESLTGHQAIQKALSITLVQEPPPVSTVVHFKVSAQGITLTDNQRKLFFRRHYPVNSVIFCALDPQDRKWIKDGPSSKVFGFVARKQGSATDNVCHLFAEHDPEQPASAIVNFVSKVMIGSPKKV
modifications: mCherry or GFP tag
- halftime of recovery (FRAP) (NIH3T3 cells [1]): significantly higher
- mobile fraction (FRAP) (NIH3T3 cells [1]): significantly higher
- fewer FN fibrils (TNS3KO cells): over 70%
- reduction in centrally located α5 integrin-positive FBs (U2OS TNS3KO cells): 55%
- construct-positive adhesions after blebbistatin (NIH3T3 cells [2]): mostly disappear
- localization of talin1/2, KANK1/2 and vinculin into condensates (NIH3T3 cells [3]): failed to localize into the tensin3 condensates
- presence of tensin1, LIMD1, DLC1, and GIGYF1 in condensates (NIH3T3 cells [3]): remained present
